This passage reports Kd results from article doi:10.1101/2024.01.14.575554 (bioRxiv, 2024).

This experiment has as its target T1, Alexa-488 tagged Hsp60α (Sulfolobus acidocaldarius, UniProt Q9V2T5 1-558, Alexa-488 label (site not stated)).
T1 sequence (looked up): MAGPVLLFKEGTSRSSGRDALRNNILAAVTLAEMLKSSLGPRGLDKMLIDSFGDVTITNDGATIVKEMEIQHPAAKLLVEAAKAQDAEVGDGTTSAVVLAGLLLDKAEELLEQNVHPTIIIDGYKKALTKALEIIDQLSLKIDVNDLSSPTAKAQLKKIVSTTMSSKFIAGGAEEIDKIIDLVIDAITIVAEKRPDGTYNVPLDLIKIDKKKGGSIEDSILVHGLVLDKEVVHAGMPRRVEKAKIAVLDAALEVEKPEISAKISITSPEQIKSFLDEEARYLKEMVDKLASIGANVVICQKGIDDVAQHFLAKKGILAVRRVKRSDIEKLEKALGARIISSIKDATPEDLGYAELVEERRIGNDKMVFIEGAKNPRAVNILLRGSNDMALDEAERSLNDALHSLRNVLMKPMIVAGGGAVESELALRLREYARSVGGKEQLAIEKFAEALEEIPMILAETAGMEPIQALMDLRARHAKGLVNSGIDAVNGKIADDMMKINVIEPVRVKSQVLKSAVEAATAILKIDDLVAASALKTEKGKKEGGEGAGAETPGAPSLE
Nature of the experiment: FRET or BRET. (In BRET a luciferase serves as donor, and the signal depends on an acceptor being close.)

B1: Alexa-532 tagged Hsp60β (natural protein, Sulfolobus acidocaldarius, UniProt Q9V2T4 1-553, looked up)
chain: MSATATVATTPEGIPVIILKEGSSRTYGKEALRINIAAVKAVEEALKTTYGPRGMDKMLVDSLGDITITNDGATILDKMDLQHPAAKLLVQIAKGQDEETADGTKTAVIFSGELVKKAEELLYKEIHPTIIVSGYKKAEEMAIKTIEEISTKVSVNDTEILRKVALTSLSSKAVAGAREHLADIVVKAITQVAELRGDKWYVDLDNVQIVKKHGGSINDTQIVYGIIVDKEVVHPGMPKRVENAKIALLDASLEVEKPELDAEIRINDPTQMKKFLDEEENILKEKVDKIAQTGANVVICQKGIDEVAQHYLAKKGILAVRRAKKSDLEKLARATGGRVVSNIDELTSQDLGYATLVEERKIGEDKMVFIEGAKNPKAVSILIRGGLERVVDETERALRDALGTVADVVRDGRAIAGGGAVETEIAKRLRKYAPQVGGKEQLAIEAYANALESLVMILIENGGFDPIELLVKLRSAHENETNKWHGINVYTGQIQDMWSLGVIEPAVVKMNAIKAATEASTLILRIDDLISAGKKSEGKTGEKKESEKGKEED
modifications: Alexa-532 label (site not stated)
B1 displayed a Kd of 167 ± 1.7 nM.

As a reminder, the Kd is the constant that tells how readily two partners part at equilibrium. Higher therefore signals a looser complex.
